Assay results from US20040191910, “Genes encoding plant transcription factors” (International Research Center for Agricultural Sciences, published 2004).

Target: OsDREB2A (Oryza sativa, UniProt A2WL19 SEQ:1-163)
Experiment: EMSA; room temperature 20 min, 5% PAGE 0.25x TBE
Settings: tags: N-terminal GST (pGEX-4T-1), cDNA nt 334-822; label: 32P
Procedure: The E. coli into which the protein had been induced was suspended in 18 ml of buffer (10 mM Tris-HCl, pH 8.0, 0.1 mM EDTA, 5 mM MgCl₂, 400 mM NaCl, 5% glycerol, 0.1 mM phenylmethylsulfonyl fluoride, 0.1 mM dithiothreitol). Then, 1% Triton X-100 and 1 mM EDTA were added thereto. After the cells were disrupted by sonication, the disrupted material was centrifuged at 20,000 g for 1 hour. Then, the protein was purified from the supernatant using glutathione-Sepharose (Pharmacia). The resultant fusion protein was incubated at room temperature for 20 minutes using the DRE sequence-containing 75 bp DNA fragment (SEQ ID NO: 16) labeled with ³²P as a probe. This mixture was electrophoresed using 5% polyacrylamide containing 0.25×Tris-borate-EDTA at 120 V for 90 minutes. As a result of this gel shift assay, those bands which migrated to the back were detected. When the DNA fragment containing the mutated DRE sequence was used as a probe, such bands were not detected. Thus, it became evident that OsDREB1A and OsDREB2A proteins specifically bind to the DRE sequence (FIG. 4).

OsDREB2A, sequence (A2WL19 1-163): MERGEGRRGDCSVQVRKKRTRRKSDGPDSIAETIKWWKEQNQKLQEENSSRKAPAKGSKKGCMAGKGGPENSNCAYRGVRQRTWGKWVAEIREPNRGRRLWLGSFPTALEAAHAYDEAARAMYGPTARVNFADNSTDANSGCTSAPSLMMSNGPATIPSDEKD

B1: DRE 75 bp fragment of rd29A promoter (dsDNA)
DNA 1: ACATCAGTTTGAAAGAAAAGGGAAAAAAAGAAAAAATAAATAAAAGATATACTACCGACATGAGTTCCAAAAAGC
DNA 2: GCTTTTTGGAACTCATGTCGGTAGTATATCTTTTATTTATTTTTTCTTTTTTTCCCTTTTCTTTCAAACTGATGT
- binding result: binds
